Test results: US20150203548A1 (GOVERNMENT OF THE UNITED STATES OF AMERICA AS REPRESENTED …, published 2015)

Biological target: T1, Staphylococcal Enterotoxin B (SEB) (UniProt P01552 28-266)
T1 sequence: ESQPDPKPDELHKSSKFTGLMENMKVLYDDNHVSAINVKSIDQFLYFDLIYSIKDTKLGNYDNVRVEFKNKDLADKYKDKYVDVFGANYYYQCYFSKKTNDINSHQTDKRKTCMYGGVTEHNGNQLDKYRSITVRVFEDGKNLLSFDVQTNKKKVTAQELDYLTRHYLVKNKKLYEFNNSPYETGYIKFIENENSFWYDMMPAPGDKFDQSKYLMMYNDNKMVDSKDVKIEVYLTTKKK
Assay: SPR (ProteON XPR36), antigen-coated chip

B1: sdAb A3 (VHH)
VHH: EVQLVESGGGLVQAGDSLRLSCTASGRTFSRAVMGWFRQAPGKEREFVAAISAAPGTAYYAFYADSVRGRFSISADSAKNTVYLQMNSLKPEDTAVYYCAADLKMQVAAYMNQRSVDYWGQGTQVTVSS
binding result: binds
